The text below walks through data of patent publication EP4737482A1 (Atheon Bio, Inc., dated 2026).

T1: human MYCT1 (hMYCT1) (human, UniProt Q8N699 1-235, limits assumed)
T1 construct: also called MYC Target 1
T1 sequence: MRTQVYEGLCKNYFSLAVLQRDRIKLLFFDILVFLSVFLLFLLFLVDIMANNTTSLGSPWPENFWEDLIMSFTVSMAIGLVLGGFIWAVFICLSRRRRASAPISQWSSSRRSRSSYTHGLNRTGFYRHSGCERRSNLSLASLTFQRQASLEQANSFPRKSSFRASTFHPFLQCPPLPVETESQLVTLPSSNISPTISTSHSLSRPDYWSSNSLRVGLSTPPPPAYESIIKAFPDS

B1: 2B4-z14-uIgG1K (antibody, V domains shown)
VH: EVQLQQSGPELVKPGASVKMSCKASGYTFTDYNMHWVRQSHGKGLEWIGYINPNNGGSSYNRKFKGKATLTVNKSSRSASMELRSLTSEDSAVYYCATRFDVWGTGTTVTVSS
VL: DVVMTQSPLSLPVTLGQPASISCKSSQSLLFSDGKTYLNWLQQRPGQSPRRLIYLVSKLDSGVPDRFSGSGSGTDFTLKISRVEAEDVGVYYCWQGTHFPQTFGGGTKVEIK
B2: 11B6-z0-uIgG1K (antibody, V domains shown)
VH: EVQLVESGGGLVKPGGSLRLSCAASGFTFSDFGIHWVRQAPGKGLEWVSYISSGSRTIHYADTVKGRFTISRDNAKNSLYLQMNSLRAEDTAVYYCARRDWDPEWLAYWGQGTLVTVSS
VL: DIVMTQSPLSLPVTPGEPASISCRSSLSLVHSNGHTYLHWYLQKPGQSPQLLIYKVSNRFSGVPDRFSGSGSGTDFTLKISRVEAEDVGVYYCSQSTHVPFTFGQGTKLEIK
B3: 11B6-z8-uIgG1K (antibody, V domains shown)
VH: EVQLVESGGGLVKPGGSLRLSCAASGFTFSDFGIHWVRQAPGKGLEWVSYISSGSRTIHYADTVKGRFTISRDNAKNSLYLQMNSLRAEDTAVYYCARRDWDPEWLAYWGQGTLVTVSS
VL: DIVMTQSPLSLPVTPGEPASISCRSSLSLVHSNGHTYLHWYLQKPGQSPQLLIYKVSNRFSGVPDRFSGSGSGTDFTLKISRVEAEDVGVYFCSQSTHVPFTFGQGTKLEIK
B4: 11B6-z6-uIgG1K (antibody, V domains shown)
VH: EVQLVESGGGLVKPGGSLRLSCAASGFTFSDFGIHWVRQAPGKGLEWVSYISSGSRTIHYADTVKGRFTISRDNAKNSLYLQMNSLRAEDTAVYYCARRDWDPEWLAYWGQGTLVTVSS
VL: DIVMTQSPLSLPVTPGEPASISCRSSLSLVHSNGHTYLHWYLQKPGQSPKLLIYKVSNRFSGVPDRFSGSGSGTDFTLKISRVEAEDVGVYYCSQSTHVPFTFGQGTKLEIK
B5: 11B6-z5-uIgG1K (antibody, V domains shown)
VH: EVQLVESGGGLVKPGGSLRLSCAASGFTFSDFGIHWVRQAPGKGLEWVSYISSGSRTIHYADTVKGRFTISRDNAKNSLYLQMNSLRAEDTAVYYCARRDWDPEWLAYWGQGTLVTVSS
VL: DVVMTQSPLSLPVTPGEPASISCRSSLSLVHSNGHTYLHWYLQKPGQSPQLLIYKVSNRFSGVPDRFSGSGSGTDFTLKISRVEAEDVGVYYCSQSTHVPFTFGQGTKLEIK
B6: 11B6-z7-uIgG1K (antibody, V domains shown)
VH: EVQLVESGGGLVKPGGSLRLSCAASGFTFSDFGIHWVRQAPGKGLEWVSYISSGSRTIHYADTVKGRFTISRDNAKNSLYLQMNSLRAEDTAVYYCARRDWDPEWLAYWGQGTLVTVSS
VL: DIVMTQSPLSLPVTPGEPASISCRSSLSLVHSNGHTYLHWYLQKPGQSPQLLIYKVSNRFSGVPDRFSGSGSGTDFTLKIRRVEAEDVGVYYCSQSTHVPFTFGQGTKLEIK
B7: 11B6-p1-uIgG1K (antibody, V domains shown)
VH: EVQLVESGGGLVKPGGSLKLSCAASGFTFSDFGIHWVRQAPEKGLEWVGYISSGSRTIHYADTVKGRFTISRDNAKNTLFLQMTNLRSEDTAIYYCARRDWDPEWLAYWGQGTLVTISA
VL: DVVMTQAPLSLPVSLGDQASISCRSSLSLVHSQGHTYLHWYLQKPGQSPKLLIYKVSNRFSGVPDRFSGSGSGTDFTLKIRRVEAEDLGVYFCSQSTHVPFTFGSGTKLEIK
B8: 11B6-z10-uIgG1K (antibody, V domains shown)
VH: EVQLVESGGGLVKPGGSLRLSCAASGFTFSDFGIHWVRQAPGKGLEWVGYISSGSRTIHYADTVKGRFTISRDNAKNSLYLQMNSLRAEDTAVYYCARRDWDPEWLAYWGQGTLVTVSS
VL: DVVMTQSPLSLPVTPGEPASISCRSSLSLVHSNGHTYLHWYLQKPGQSPQLLIYKVSNRFSGVPDRFSGSGSGTDFTLKISRVEAEDVGVYFCSQSTHVPFTFGQGTKLEIK
B9: 11B6-z13-uIgG1K (antibody, V domains shown)
VH: EVQLVESGGGLVKPGGSLRLSCAASGFTFSDFGIHWVRQAPGKGLEWVGYISSGSRTIHYADTVKGRFTISRDNAKNTLFLQMNSLRAEDTAIYYCARRDWDPEWLAYWGQGTLVTVSS
VL: DVVMTQSPLSLPVTPGEPASISCRSSLSLVHSNGHTYLHWYLQKPGQSPKLLIYKVSNRFSGVPDRFSGSGSGTDFTLKIRRVEAEDVGVYFCSQSTHVPFTFGQGTKLEIK
B10: 11B6-z3-uIgG1K (antibody, V domains shown)
VH: EVQLVESGGGLVKPGGSLRLSCAASGFTFSDFGIHWVRQAPGKGLEWVSYISSGSRTIHYADTVKGRFTISRDNAKNSLFLQMNSLRAEDTAVYYCARRDWDPEWLAYWGQGTLVTVSS
VL: DIVMTQSPLSLPVTPGEPASISCRSSLSLVHSNGHTYLHWYLQKPGQSPQLLIYKVSNRFSGVPDRFSGSGSGTDFTLKISRVEAEDVGVYYCSQSTHVPFTFGQGTKLEIK
B11: 11B6-z1-uIgG1K (antibody, V domains shown)
VH: EVQLVESGGGLVKPGGSLRLSCAASGFTFSDFGIHWVRQAPGKGLEWVGYISSGSRTIHYADTVKGRFTISRDNAKNSLYLQMNSLRAEDTAVYYCARRDWDPEWLAYWGQGTLVTVSS
VL: DIVMTQSPLSLPVTPGEPASISCRSSLSLVHSNGHTYLHWYLQKPGQSPQLLIYKVSNRFSGVPDRFSGSGSGTDFTLKISRVEAEDVGVYYCSQSTHVPFTFGQGTKLEIK
B12: 11B6-z11-uIgG1K (antibody, V domains shown)
VH: EVQLVESGGGLVKPGGSLRLSCAASGFTFSDFGIHWVRQAPGKGLEWVGYISSGSRTIHYADTVKGRFTISRDNAKNSLYLQMNSLRAEDTAIYYCARRDWDPEWLAYWGQGTLVTVSS
VL: DVVMTQSPLSLPVTPGEPASISCRSSLSLVHSNGHTYLHWYLQKPGQSPQLLIYKVSNRFSGVPDRFSGSGSGTDFTLKISRVEAEDVGVYFCSQSTHVPFTFGQGTKLEIK
B13: 11B6-z4-uIgG1K (antibody, V domains shown)
VH: EVQLVESGGGLVKPGGSLRLSCAASGFTFSDFGIHWVRQAPGKGLEWVSYISSGSRTIHYADTVKGRFTISRDNAKNSLYLQMNSLRAEDTAIYYCARRDWDPEWLAYWGQGTLVTVSS
VL: DIVMTQSPLSLPVTPGEPASISCRSSLSLVHSNGHTYLHWYLQKPGQSPQLLIYKVSNRFSGVPDRFSGSGSGTDFTLKISRVEAEDVGVYYCSQSTHVPFTFGQGTKLEIK
B14: 11B6-z12-uIgG1K (antibody, V domains shown)
VH: EVQLVESGGGLVKPGGSLRLSCAASGFTFSDFGIHWVRQAPGKGLEWVGYISSGSRTIHYADTVKGRFTISRDNAKNSLYLQMNSLRAEDTAIYYCARRDWDPEWLAYWGQGTLVTVSS
VL: DVVMTQSPLSLPVTPGEPASISCRSSLSLVHSNGHTYLHWYLQKPGQSPKLLIYKVSNRFSGVPDRFSGSGSGTDFTLKIRRVEAEDVGVYFCSQSTHVPFTFGQGTKLEIK
B15: 11B6-z9-uIgG1K (antibody, V domains shown)
VH: EVQLVESGGGLVKPGGSLRLSCAASGFTFSDFGIHWVRQAPGKGLEWVSYISSGSRTIHYADTVKGRFTISRDNAKNSLYLQMNSLRAEDTAVYYCARRDWDPEWLAYWGQGTLVTVSS
VL: DVVMTQSPLSLPVTPGEPASISCRSSLSLVHSNGHTYLHWYLQKPGQSPQLLIYKVSNRFSGVPDRFSGSGSGTDFTLKISRVEAEDVGVYFCSQSTHVPFTFGQGTKLEIK
B16: 11B6-z2-uIgG1K (antibody, V domains shown)
VH: EVQLVESGGGLVKPGGSLRLSCAASGFTFSDFGIHWVRQAPGKGLEWVSYISSGSRTIHYADTVKGRFTISRDNAKNTLYLQMNSLRAEDTAVYYCARRDWDPEWLAYWGQGTLVTVSS
VL: DIVMTQSPLSLPVTPGEPASISCRSSLSLVHSNGHTYLHWYLQKPGQSPQLLIYKVSNRFSGVPDRFSGSGSGTDFTLKISRVEAEDVGVYYCSQSTHVPFTFGQGTKLEIK
B17: 11B6-z15-uIgG1K (antibody, V domains shown)
VH: EVQLVESGGGLVKPGGSLRLSCAASGFTFSDFGIHWVRQAPGKGLEWVGYISSGSRTIHYADTVKGRFTISRDNAKNTLFLQMNSLRAEDTAIYYCARRDWDPEWLAYWGQGTLVTVSS
VL: DVVMTQAPLSLPVSLGDQASISCRSSLSLVHSNGHTYLHWYLQKPGQSPKLLIYKVSNRFSGVPDRFSGSGSGTDFTLKIRRVEAEDLGVYFCSQSTHVPFTFGSGTKLEIK
B18: 11B6-p3-uIgG1K (antibody, V domains shown)
VH: EVQLVESGGGLVKPGGSLKLSCAASGFTFSDFGIHWVRQAPEKGLEWVGYISSGSRTIHYADTVKGRFTISRDNAKNTLFLQMTNLRSEDTAIYYCARRDWDPEWLAYWGQGTLVTISA
VL: DVVMTQAPLSLPVSLGDQASISCRSSLSLVHSNAHTYLHWYLQKPGQSPKLLIYKVSNRFSGVPDRFSGSGSGTDFTLKIRRVEAEDLGVYFCSQSTHVPFTFGSGTKLEIK
B19: 11B6-z14-uIgG1K (antibody, V domains shown)
VH: EVQLVESGGGLVKPGGSLKLSCAASGFTFSDFGIHWVRQAPEKGLEWVGYISSGSRTIHYADTVKGRFTISRDNAKNTLFLQMTNLRSEDTAIYYCARRDWDPEWLAYWGQGTLVTISA
VL: DVVMTQSPLSLPVTPGEPASISCRSSLSLVHSNGHTYLHWYLQKPGQSPKLLIYKVSNRFSGVPDRFSGSGSGTDFTLKIRRVEAEDVGVYFCSQSTHVPFTFGQGTKLEIK
B20: 11B6-p2-uIgG1K (antibody, V domains shown)
VH: EVQLVESGGGLVKPGGSLKLSCAASGFTFSDFGIHWVRQAPEKGLEWVGYISSGSRTIHYADTVKGRFTISRDNAKNTLFLQMTNLRSEDTAIYYCARRDWDPEWLAYWGQGTLVTISA
VL: DVVMTQAPLSLPVSLGDQASISCRSSLSLVHSSGHTYLHWYLQKPGQSPKLLIYKVSNRFSGVPDRFSGSGSGTDFTLKIRRVEAEDLGVYFCSQSTHVPFTFGSGTKLEIK

The first test addresses T1, human MYCT1 (hMYCT1). In words: SPR (Biacore 8K), antibody captured via anti-human Fc IgG, MYCT1 as analyte, steady-state affinity model. For orientation: In SPR one partner is held on a chip, and binding of the other changes the refractive index at the surface.
For orientation: Kd means the concentration at which binding is half-saturated. Read a high Kd as weaker binding. On to B1, for which the equilibrium dissociation constant (Kd) was 203 nM.

For the next test, the target named is T1, human MYCT1 (hMYCT1). In words: SPR koff ranking, single curve, antibody captured via anti-human Fc IgG, 10 nM MYCT1 as analyte, 1:1 binding model.
Usually koff stands for a measure of how fast the partners let go of each other. The low end stands for a long-lived complex, the high end for a short-lived complex. In turn, B2 yielded a koff of 0.0624 s⁻¹. Take B3: the koff is 0.0324 s⁻¹. Against the preceding molecule, the koff is about 1.9-fold lower. Molecule B4 returned a koff of 0.0377 s⁻¹.

Molecule B5 came in with a koff of 0.0521 s⁻¹. Still for that read-out and setting: the value for B6 was 0.0473 s⁻¹. In turn, B7 registered a koff of 0.00933 s⁻¹.

B8 gave a koff of 0.0102 s⁻¹.

B9 showed a koff of 0.00838 s⁻¹. On the same count and under the same terms, the value for B10 was 0.0659 s⁻¹. Same read-out and setting: the value for B11 was 0.0169 s⁻¹; that for B12 was 0.0102 s⁻¹. The molecule B13 gave a koff of 0.0476 s⁻¹. As to B14, the koff amounted to 0.00838 s⁻¹. Take B15: the koff was found to be 0.0311 s⁻¹. Consider B16, for which the koff is 0.056 s⁻¹. On the same count and under the same terms, with B17 the figure was 0.00906 s⁻¹; with B18, 0.00547 s⁻¹; with B19, 0.0052 s⁻¹. B20 came in with an off-rate (koff) of 0.00691 s⁻¹. This koff and that of the molecule before are within 1.5-fold of each other.
